Target: α-dystroglycan on embryonic Xenopus myotomal muscle cells (Xenopus (endogenous in embryonic Xenopus muscle cells))
Experiment: immunostaining of cells or tissue

percent inhibition of mAb IIH6 binding (at 33 nM E3): 41%
percent inhibition of mAb IIH6 binding (at 3.3 μM E3): 94%
Substance: laminin fragment E3 (domain or fragment)

From article PMC2132475
